Paper PMC12350670

Target: recombinant mouse fibroblast activation protein (mouse) (UniProt P97321)
Assay: BLI; biotinylated bait protein (30 nM) loaded on Octet streptavidin (SAX) biosensors; serially diluted VNAR-Fc (300-0.412 nM) as analyte; PBS with 1% BSA; kinetic analysis with a bivalent analyte model

recombinant mouse fibroblast activation protein (mouse), sequence (P97321 whole entry): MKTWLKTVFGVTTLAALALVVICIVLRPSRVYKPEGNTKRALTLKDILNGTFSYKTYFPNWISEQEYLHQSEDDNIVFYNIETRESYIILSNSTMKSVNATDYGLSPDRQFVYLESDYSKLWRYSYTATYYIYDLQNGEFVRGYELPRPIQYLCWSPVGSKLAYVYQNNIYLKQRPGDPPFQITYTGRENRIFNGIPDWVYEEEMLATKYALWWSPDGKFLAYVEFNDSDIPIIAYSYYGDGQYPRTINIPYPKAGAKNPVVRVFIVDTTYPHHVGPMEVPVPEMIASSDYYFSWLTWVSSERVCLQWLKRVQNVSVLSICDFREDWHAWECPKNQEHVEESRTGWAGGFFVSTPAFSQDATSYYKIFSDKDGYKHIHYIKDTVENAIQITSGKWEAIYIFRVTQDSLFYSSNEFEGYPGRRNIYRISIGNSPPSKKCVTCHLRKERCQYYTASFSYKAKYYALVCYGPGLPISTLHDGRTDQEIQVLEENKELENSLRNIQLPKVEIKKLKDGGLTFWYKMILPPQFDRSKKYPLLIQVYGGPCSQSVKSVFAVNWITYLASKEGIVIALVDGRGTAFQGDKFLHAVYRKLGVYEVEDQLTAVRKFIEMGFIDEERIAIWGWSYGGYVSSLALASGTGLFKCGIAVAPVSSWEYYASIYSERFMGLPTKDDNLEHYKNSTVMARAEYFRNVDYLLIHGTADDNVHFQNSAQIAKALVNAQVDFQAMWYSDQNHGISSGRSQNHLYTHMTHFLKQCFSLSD

Row | Binder | Kd [nM]
1 | H4-Fc (Fc fusion) ARVDQTPQTITKETGESLTINCVLRDSNCALSSTYWYRKKSGSTNEESISKGGRYVETVNSGSKSFSLRINDLTVEDSGTYRCNVYVAGMSPCLSWGDVYGDGTAVTVN | 14.2
2 | NGS2405-Fc (Fc fusion) ARVDQTPQTITKETGESLTINCVLRDSNCALSFTYWYRKKSGSTNEESISKGGRYVETVNSGSKSFSLRINDLTVEDSGTYRCNVYVGGGCPHWIDVYGDGTAVTVN | 79.5
